One block for each molecule: values may come before it.
B1: DnaB with a C-terminal hexahistidine tag (DnaB-His; 56 kDa) (enzyme, Caulobacter crescentus, UniProt A0A0H3C7A8 1-507, looked up)
chain: MPMSLVPALDLVLPGLPEPTINVAPHNMEAEQALLGVLLYDNAAYERLSDNLQARCFYEPFHQRLFQAIETHVRKGQLAEPILLADEFKKDPAFEELGGLRYLADLVDRAPPAANVGDYARVIFDLSLRRELIRIGGDIATAAQGGNDEKRNARDQIEAAEQSLYSLAESGAASSGFVSFGDALRGAVEMTAEAYSRDGGMSGVSTDLMDLDQKIGGLHPSDLIILAGRPSMGKTALATNIAFNIAKKYAYEIQPDGTKKTVQGGVVAFYSLEMSAEQLALRMLADASGVSGDRLRKGEIDASEFGRVRDAAMELQNAPLYIDATGGISIAKLTARARRLKRQVGLDLIVVDYLQLVTGSDLGANANRVQEVSQITMGLKALAKELSVPVIALSQLSRQVEQRDDKRPQLSDLRESGSIEQDADMVWFVYREAYYVGRAEPREGTPEHLTWQEEMDRLQGLAEVIIAKQRHGPIGTVRLSFNSDTTRFGNLARDHYFAQARNIPSDE
notes: Replicative DNA helicase DnaB (CCNA_01737) of Caulobacter crescentus; Hexamer by size exclusion chromatography; Construction details are in the Supplemental Materials; also called C. crescentus DnaB; CCNA_01737; source: E. coli, purified (procedure in the Supplemental Material); not shown: His6, C-terminal, kept

Assays:
DnaB-His = target: T1, DnaB-His (Caulobacter vibrioides, UniProt A0A0H3C7A8); test: ATPase assay, [alpha-32P]ATP, TLC on PEI cellulose, Michaelis-Menten fit; format: biochemical; conditions: pH 7.5, 10 mM magnesium acetate, 30 C, 5-160 uM ATP, 8.3 nM hexamer, no DciA; labelled compound
T1 construct: gene CCNA_01737; full-length, C-terminal His6 tag kept, expressed in E. coli Rosetta 2(DE3), 56 kDa monomer, hexamer (330 kDa) from size exclusion chromatography

[1] = target: the molecule itself; test: SEC; Superdex 200 Increase 10/300 GL; 25 mM Tris-HCl pH 7.5, 300 mM sodium chloride, 20% glycerol, 0.1 mM ATP, 5 mM magnesium chloride; 0.2 ml/min; DnaB-His 10 nmol, His-DciA 25 nmol, alone or mixed; fractions on SDS-PAGE with Coomassie staining
[2] = target: B1; test: as above; conditions: both partners purified

Molecule: Nc1ncnc2c1ncn2[C@@H]1O[C@H](COP(=O)(O)OP(=O)(O)OP(=O)(O)O)[C@@H](O)[C@H]1O [ATP]
ATPase assay, [alpha-32P]ATP, TLC on PEI cellulose, Michaelis-Menten fit (DnaB-His): ATP hydrolysis was readily observed at various concentrations of wild-type DnaB-His

Molecule: B1
stoichiometry N [1]: 6

stoichiometry N [2]: 1.9 DnaB-His per His-DciA
B2: DciA with an N-terminal hexahistidine tag (His-DciA; 21 kDa) (natural protein, Caulobacter crescentus, UniProt A0A0H3C5R2 1-179, looked up)
chain: MRRPLPTPEEAIAILRSKRTKPQRRPPPPAGKNLAPLLKDLEDRFGKGPAALQARWKEIVGDTLARRTEPVRIIKGRNGEGGALELRVDGPVASLIQHQAPQITARLDMLLGKGVVTRLRIVQGPVKAPAAAPSTRLRRKPPLDAALEKQLADSLAEQPDGALKQALLKLGRGVLSSER
notes: DciA (CCNA_00380) of Caulobacter crescentus; This is surmised from the primer; construction details are in the Supplemental Materials; source: E. coli, purified (procedure in the Supplemental Material); not shown: His6, N-terminal, kept

Reference: PMC9825169, “The Caulobacter crescentus DciA promotes chromosome replication through topological loading of the DnaB replicative helicase at replication forks” (Nucleic Acids Research, 2022)
